According to publication PMC4324299, “Characterization of interactions between inclusion membrane proteins from Chlamydia trachomatis” (Frontiers in Cellular and Infection Microbiology, 2015):

B1: Ct222 (natural protein)
chain: MRCCCVRTNYEEVRSSSTGDQVVSAVKERKCDSSLCRKIASVAFTLIGALLLGIGMVLSFALLGSSAGLIGVGVILSALGAVCLSLGLCKLFLRMKRVSLDKAEQKMLEDQVELLRQENQELKALVYSN
notes: Ct222, putative inclusion membrane protein of C. trachomatis; also called Ct222 FL; source: bacterial two-hybrid (BACTH) fusion, co-expressed in E. coli DHT1; not shown: T25 (as bait) or T18 (as prey) fragment of B. pertussis adenylate cyclase, N-terminal, kept
B2: Ct850 (natural protein)
chain: MGFGTVRGKGKAVKSFFLRPLQNLEVGLFSLPIVLLLGEIGCVSSISSVSLVAVLSIVGVFVALVSFFRSWGYGLSVVGAIFFGLALCNNFPVSVFWGGLLTVSFIISYGILLLSVSLVEGHIKEKAVSLSELTASHNSLQDSYNREVQERKEKELLAQSKITALEQELSVSHEQLQEVSRKYTHASEDLQILIDQRDSWLKDYMTLHQEYVRVVAGDEENVIFPWKVFQGNSEKDSGYQQRVQDAEHKIAHLEKLCEEENSGKRYAEECLDKALADLLESTRLREILEKEIFQKDEEIASLKQEIAAEKLLSSSVSDDRAAYKGKYLQLREQFTVKDSFLKKARRERFLAQEQLLVLKRAKEEEASNLSTTDSFSIIQNLLLQIEALEEEVTYLEELVLHNQNR
notes: Ct850, putative inclusion membrane protein of C. trachomatis; source: bacterial two-hybrid (BACTH) fusion, co-expressed in E. coli DHT1; not shown: T25 (as bait) or T18 (as prey) fragment of B. pertussis adenylate cyclase, N-terminal, kept

Legend:
Assay in all cases: two-hybrid
Ct850 = molecular target: B2; settings: partners not purified
two-hybrid = molecular target: the molecule itself
Ct222 = molecular target: B1; settings: partners not purified

B1
β-galactosidase activity (Ct850): 92 relative units (RU)
β-galactosidase activity (two-hybrid): 317 relative units (RU)

B2
β-galactosidase activity (Ct222): 151 relative units (RU)
